Measured values from paper PMC6993860 (Biochemical Journal, 2020).
Numbering of substitutions follows the chain as printed. Names may count otherwise. Like-named read-outs stand apart in the source and are kept apart here.

B1: HtrA3 S305A (enzyme)
chain: LHQLSSPRYKFNFIADVVEKIAPAVVHIELFLRHPLFGRNVPLSSGSGFIMSEAGLIITNAHVVSSNSAAPGRQQLKVQLQNGDSYEATIKDIDKKSDIATIKIHPKKKLPVLLLGHSADLRPGEFVVAIGSPFALQNTVTTGIVSTAQREGRELGLRDSDMDYIQTDAIINYGNAGGPLVNLDGEVIGINTLKVTAGISFAIPSDRITRFLTEFQDKQIKDWKKRFIGIRMRTITPSLVDELKASNPDFPEVSSGIYVQEVAPNSPSQRGGIQDGDIIVKVNGRPLVDSSELQEAVLTESPLLLEVRRGNDDLLFSIAPEVVM
B2: HtrA3 F142A (enzyme)
chain: B1 chain with F13A, A176S

Legend:
SEC [1] = target: the molecule itself; test: SEC
SEC [2] = target: the molecule itself; test: SEC; remark: listed apart in the source

Protein | stoichiometry N (SEC [1]) | stoichiometry N (SEC [2])
B1 | 3 | –
B2 | – | 3
